Measured values from patent US20240115603A1 (Zymeworks, published 2024).
Changes are numbered by the printed parent chain.

Experiments:
[1] = target: T1, WT G-CSFR(Ig-CRH), purified, tag cleaved (human, UniProt Q99062 26-331); assay: SPR (Biacore T200)
T1 construct: also called G-CSFRWT; wild type G-CSFR ECD
T1 chain: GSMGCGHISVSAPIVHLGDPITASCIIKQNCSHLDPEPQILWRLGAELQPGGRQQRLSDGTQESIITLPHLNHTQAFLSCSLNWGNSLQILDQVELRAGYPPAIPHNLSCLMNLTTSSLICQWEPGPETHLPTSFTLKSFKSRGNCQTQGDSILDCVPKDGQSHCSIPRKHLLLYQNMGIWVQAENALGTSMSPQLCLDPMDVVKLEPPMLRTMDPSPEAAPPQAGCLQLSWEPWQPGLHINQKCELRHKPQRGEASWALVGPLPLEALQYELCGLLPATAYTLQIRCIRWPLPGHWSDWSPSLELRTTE

[2] = target: T2, G-CSFR(Ig-CRH)E design 34, purified, tag cleaved (human, UniProt Q99062 26-331); assay: SPR (Biacore T200), G-CSFR(Ig-CRH)E amine-coupled, G-CSFE injected; KD relative to WT:WT control (larger = weaker)
T2 construct: SPR protein; also called Design 34 G-CSFR(Ig-CRH)E
T2 chain: T1 chain with R143E, R169D
Method: (§1) The SPR binding assays were carried out on a Biacore T200 instrument (GE Healthcare, Mississauga, ON, Canada) with PBS-T (PBS+0.05% (v/v) Tween 20) running buffer at a temperature of 25° C. CMS Series S sensor chip, Biacore amine coupling kit (NHS, EDC and 1 M ethanolamine), and 10 mM sodium acetate buffers were all purchased from GE Healthcare. PBS running buffer with 0.05% Tween20 (PBS-T) was purchased from Teknova Inc. (Hollister, CA).
(§2) To determine binding affinity of G-CSFE to G-CSFRE the G-CSFRE mutant was captured by standard amine coupling as described by the manufacturer (GE LifeSciences). Briefly, immediately after EDC/NHS activation, a 5 μg/mL solution of G-CSFRE in 10 mM NaOAc, pH 5.0, was injected at a flow rate of 5 μL/min until a receptor density of ˜700-900 RU was reached. The remaining active groups were quenched by a 420 s injection of 1 M ethanolamine hydrochloride-NaOH pH 8.5 at 10 μL/min. Using single-cycle kinetics, six concentrations of a two-fold dilution series of the corresponding G-CSFE mutant starting at 200 nM with a blank buffer control were sequentially injected at 25 μL/min for 300s with a 1800s dissociation phase, resulting in a set of sensorgrams with a buffer blank reference. The same sample titration was also performed on a reference cell with no variants captured. The chip was regenerated to prepare for the next injection cycle by one pulse of 10 mM glycine/HCl, pH 2.0, for 30 s at 30 μL/min.
(§3) Double-referenced sensorgrams from duplicate or triplicate repeat injections were analyzed using Biacore™ T200 Evaluation Software v3.0 and fit to the 1:1 Langmuir binding model.

[3] = target: T1, WT G-CSFR(Ig-CRH), purified, tag cleaved; assay: SPR (Biacore T200), WT G-CSFR(Ig-CRH) amine-coupled, G-CSFE injected; KD relative to WT:WT control (larger = weaker)
[4] = target: T3, G-CSFR(Ig-CRH)E design 35, purified, tag cleaved (human, UniProt Q99062 26-331); assay: SPR (Biacore T200), G-CSFR(Ig-CRH)E amine-coupled, G-CSFE injected; KD relative to WT:WT control (larger = weaker)
T3 construct: SPR protein; also called Design #35 G-CSFR(Ig-CRH)E
T3 chain: T1 chain with R143E, L173E, Q176E
Method: as §1, §2, §3

[5] = target: T1, WT G-CSFR(Ig-CRH), purified, tag cleaved; assay: SPR (Biacore T200), WT G-CSFR(Ig-CRH) amine-coupled
[6] = target: T4, G-CSFR(Ig-CRH)E design 300, purified, tag cleaved (human, UniProt Q99062 26-331); assay: SPR (Biacore T200), G-CSFR(Ig-CRH)E amine-coupled, G-CSFE injected; KD relative to WT:WT control (larger = weaker)
T4 construct: SPR protein; also called Design 300 G-CSFR(Ig-CRH)E
T4 chain: T1 chain with F77K, Q93K, R169D
Method: as §1, §2, §3

[7] = target: T5, G-CSFR(Ig-CRH)E design 401, purified, tag cleaved (human, UniProt Q99062 26-331); assay: SPR (Biacore T200), G-CSFR(Ig-CRH)E amine-coupled, G-CSFE injected; steady-state derived KD relative to steady-state WT:WT KD
T5 construct: SPR protein; also called Design 401 G-CSFR(Ig-CRH)E
T5 chain: T1 chain with R43E, R169D, R290D
Method: as §2, §3
(§4) Kinetic-derived affinity constants (KD) where obtained by fitting the association and dissociation phases of the curves. […] For the cases in which the kinetic parameters could not be fit an attempt was made to derive a steady state affinity constant.

[8] = target: T6, G-CSFR(Ig-CRH)E design 304, purified, tag cleaved (human, UniProt Q99062 26-331); assay: SPR (Biacore T200), G-CSFR(Ig-CRH)E amine-coupled, G-CSFE injected; KD relative to WT:WT control (larger = weaker)
T6 construct: SPR protein; also called Design 304 G-CSFR(Ig-CRH)E
T6 chain: T1 chain with R43E, E95K, R169D
Method: as §1, §2, §3

[9] = target: T7, G-CSFR(Ig-CRH)E design 130, purified, tag cleaved (human, UniProt Q99062 26-331); assay: as above
T7 construct: SPR protein; also called Design 130 G-CSFR(Ig-CRH)E
T7 chain: T1 chain with R43E, R169D
Method: as §1, §2, §3

[10] = target: T8, G-CSFR(Ig-CRH)E design 134 (R41E_R141E_R167D), purified, tag cleaved (human, UniProt Q99062 26-331); assay: as above
T8 construct: also called Design 134 G-CSFR(Ig-CRH)E; design 137 G-CSFR(Ig-CRH)E
T8 chain: T1 chain with R43E, R143E, R169D
Method: as §1, §2, §3

[11] = target: T9, G-CSFR(Ig-CRH)E design 402, purified, tag cleaved (human, UniProt Q99062 26-331); assay: SPR (Biacore T200), G-CSFR(Ig-CRH)E amine-coupled, G-CSFE injected; steady-state derived KD relative to steady-state WT:WT KD
T9 construct: SPR protein; also called Design 402 G-CSFR(Ig-CRH)E
T9 chain: T1 chain with R43E, R169E, Q176E, R290E
Method: as §2, §3, §4

[12] = target: T10, G-CSFR(Ig-CRH)E design 303, purified, tag cleaved (human, UniProt Q99062 26-331); assay: as above
T10 construct: SPR protein; also called Design 303 G-CSFR(Ig-CRH)E
T10 chain: T1 chain with E95K, R169D
Method: as §2, §3, §4

B1: G-CSFE design 34, purified, tag cleaved (ligand)
chain: TPLGPASSLPQSFLLKCLEQVRKIQGDGAALQEKLCATYKLCHPEELVLLGHSLGIPWAPLSSCPSQALQLAGCLSQLHSGLFLYQGLLQALEGISPELGPTLDTLQKDVARFATTIWQQMRRLGMAPALQPTQGAMPAFASAFQRRAGGVLVASHLQSFLEVSYRVLRHLAQAAAENLYFQ
notes: also called Design 34 G-CSFE
How did the “fold weaker KD (vs WT:WT)” value [1] turn out when B1 was run?
Its value is ≥ 20 fold.

And the “KD fold change (vs WT:WT)” value [2]?
Its value is 5 fold.

What about the “KD fold change (vs WT:WT)” value [3] of the same binder?
The value was 33 fold.

B2: G-CSFE design 35, purified, tag cleaved (ligand)
chain: B1 chain with K108L, R112D, T115K
notes: also called Design 35 G-CSFE
How did the “KD fold change (vs WT:WT)” value [4] turn out when B2 was run?
The value was 3.3 fold.

And the “KD fold change (vs WT:WT)” value [3]?
Its value is 5 fold.

B3: G-CSFE design 300, purified, tag cleaved (ligand)
chain: B1 chain with K40D, L41D, R122E, R123E
notes: also called Design 300 G-CSFE
Does B3 bind [5]?
Result: no binding

And the “KD fold change (vs WT:WT)” value [6]?
Its value is 194 fold.

B4: G-CSFE design 401, purified, tag cleaved (ligand)
chain: B1 chain with E19K, E46R, R122E, R123E
notes: also called Design 401 G-CSFE
Does B4 bind [5]?
Result: no binding

And the “KD fold change (vs WT:WT)” value [7]?
The value was 0.6 fold.

B5: G-CSFE design 304, purified, tag cleaved (ligand)
chain: B1 chain with E46R, R122E, R123E, R147E
notes: also called 304 G-CSF
Does B5 bind [5]?
Result: no binding

What about the “KD fold change (vs WT:WT)” value [8] of the same binder?
Its value is 6.5 fold.

B6: G-CSFE design 130 (E46R_L108K_D112R), purified, tag cleaved (ligand)
chain: B1 chain with E46R, R122E, R123E
notes: also called 130 G-CSF; G-CSF137
Does B6 bind [5]?
Result: no binding

What about the “KD fold change (vs WT:WT)” value [9] of the same binder?
Its value is 0.9 fold.

What about the “KD fold change (vs WT:WT)” value [10] of the same binder?
Its value is 0.3 fold.

B7: G-CSFE design 402, purified, tag cleaved (ligand)
chain: B1 chain with E19K, E46R, K108L, R112K, T115K, R122E, R123E
notes: also called Design 402 G-CSFE
Does B7 bind [5]?
Result: no binding

What about the “KD fold change (vs WT:WT)” value [11] of the same binder?
Its value is 0.8 fold.

B8: G-CSFE design 303, purified, tag cleaved (ligand)
chain: B1 chain with R122E, R123E, R147E
notes: also called Design 303 G-CSFE
Does B8 bind [5]?
Result: no binding

What about the “KD fold change (vs WT:WT)” value [12] of the same binder?
Its value is 2.2 fold.
